# Laboratory results taken from article PMC5309799.
# Assays:
# [1] = biological target: purified P113 entire ectodomain (P113 EE) (P. falciparum (3D7 strain)); experiment: native gel or EMSA; fractions of the gel filtration peak resolved by native PAGE (Bis-Tris, 150 V) against denaturing SDS-PAGE
# [2] = biological target: Basigin (Homo sapiens) (UniProt P35613); settings: cited from earlier work
# [3] = biological target: RH5Nt (F1-K116), biotinylated SPR ligand (P. falciparum (3D7 strain)); experiment: SPR
# [4] = biological target: Synthetic RH5Nt peptide (F1-K116 with an additional C-terminal cysteine) (P. falciparum); experiment: SPR
# [5] = biological target: Basigin ectodomain, AVEXIS bait or prey and biotinylated SPR ligand (human) (UniProt P35613); experiment: SPR
# [6] = biological target: P113 Y1-K197, biotinylated SPR ligand (P. falciparum (3D7 strain)); experiment: SPR
# [7] = biological target: P113 Y1-N653, biotinylated SPR ligand (P. falciparum (3D7 strain)); experiment: SPR
# [8] = biological target: P113 entire ectodomain, AVEXIS bait and prey forms (P. falciparum (3D7 strain)); experiment: SPR
# [9] = biological target: P113 entire ectodomain, AVEXIS bait or prey and biotinylated SPR ligand (P. falciparum (3D7 strain)); experiment: SPR
substance,measurement,setting,value
purified P113 entire ectodomain (P113 EE) (natural protein),stoichiometry N,[1],4
RH5 (from UniProt Q8IFM5),Kd,[2],1000 nM
"P113 Y1-N653, purified SPR analyte (domain or fragment)",Kd,[3],5 µM
same,koff,[3],1.54 s⁻¹
same,kon,[3],304000 M⁻¹ s⁻¹
same,Kd,[4],5.7 µM
same,koff,[4],1.24 s⁻¹
same,kon,[4],216000 M⁻¹ s⁻¹
"RH5Ct (major processed form of RH5), purified monomeric SPR analyte (domain or fragment)",Kd,[5],900 nM
same,koff,[5],0.293 s⁻¹
same,kon,[5],342000 M⁻¹ s⁻¹
"RH5FL, purified monomeric SPR analyte (from UniProt Q8IFM5 25-526) (natural protein)",Kd,[5],1300 nM
same,Kd,[6],1100 nM
same,Kd,[7],500 nM
purified monomeric RH5Nt (F1-K116) (domain or fragment),Kd,[8],3000 nM
purified monomeric full-length RH5 (RH5FL) (from UniProt Q8IFM5 25-526) (natural protein),Kd,[8],300 nM
"RH5Nt (N-terminal region of RH5, F1-K116), purified monomeric SPR analyte (domain or fragment)",Kd,[9],2700 nM
same,koff,[9],0.793 s⁻¹
same,kon,[9],300000 M⁻¹ s⁻¹
